# In patent US20170190753A1 (LABORATOIRE FRANCAIS DU FRACTIONNEMENT ET DES …, published 2017):
# Biological target: C3 convertase complex (UniProt P01024 23-1663; P00751 260-764)
# Assay: cell-based or functional assay
# Wherever C3 convertase activity % of the control is given: test concentration or dose not given here.
# Chain of C3 convertase complex (P01024 23-1663, chain 1 of 2): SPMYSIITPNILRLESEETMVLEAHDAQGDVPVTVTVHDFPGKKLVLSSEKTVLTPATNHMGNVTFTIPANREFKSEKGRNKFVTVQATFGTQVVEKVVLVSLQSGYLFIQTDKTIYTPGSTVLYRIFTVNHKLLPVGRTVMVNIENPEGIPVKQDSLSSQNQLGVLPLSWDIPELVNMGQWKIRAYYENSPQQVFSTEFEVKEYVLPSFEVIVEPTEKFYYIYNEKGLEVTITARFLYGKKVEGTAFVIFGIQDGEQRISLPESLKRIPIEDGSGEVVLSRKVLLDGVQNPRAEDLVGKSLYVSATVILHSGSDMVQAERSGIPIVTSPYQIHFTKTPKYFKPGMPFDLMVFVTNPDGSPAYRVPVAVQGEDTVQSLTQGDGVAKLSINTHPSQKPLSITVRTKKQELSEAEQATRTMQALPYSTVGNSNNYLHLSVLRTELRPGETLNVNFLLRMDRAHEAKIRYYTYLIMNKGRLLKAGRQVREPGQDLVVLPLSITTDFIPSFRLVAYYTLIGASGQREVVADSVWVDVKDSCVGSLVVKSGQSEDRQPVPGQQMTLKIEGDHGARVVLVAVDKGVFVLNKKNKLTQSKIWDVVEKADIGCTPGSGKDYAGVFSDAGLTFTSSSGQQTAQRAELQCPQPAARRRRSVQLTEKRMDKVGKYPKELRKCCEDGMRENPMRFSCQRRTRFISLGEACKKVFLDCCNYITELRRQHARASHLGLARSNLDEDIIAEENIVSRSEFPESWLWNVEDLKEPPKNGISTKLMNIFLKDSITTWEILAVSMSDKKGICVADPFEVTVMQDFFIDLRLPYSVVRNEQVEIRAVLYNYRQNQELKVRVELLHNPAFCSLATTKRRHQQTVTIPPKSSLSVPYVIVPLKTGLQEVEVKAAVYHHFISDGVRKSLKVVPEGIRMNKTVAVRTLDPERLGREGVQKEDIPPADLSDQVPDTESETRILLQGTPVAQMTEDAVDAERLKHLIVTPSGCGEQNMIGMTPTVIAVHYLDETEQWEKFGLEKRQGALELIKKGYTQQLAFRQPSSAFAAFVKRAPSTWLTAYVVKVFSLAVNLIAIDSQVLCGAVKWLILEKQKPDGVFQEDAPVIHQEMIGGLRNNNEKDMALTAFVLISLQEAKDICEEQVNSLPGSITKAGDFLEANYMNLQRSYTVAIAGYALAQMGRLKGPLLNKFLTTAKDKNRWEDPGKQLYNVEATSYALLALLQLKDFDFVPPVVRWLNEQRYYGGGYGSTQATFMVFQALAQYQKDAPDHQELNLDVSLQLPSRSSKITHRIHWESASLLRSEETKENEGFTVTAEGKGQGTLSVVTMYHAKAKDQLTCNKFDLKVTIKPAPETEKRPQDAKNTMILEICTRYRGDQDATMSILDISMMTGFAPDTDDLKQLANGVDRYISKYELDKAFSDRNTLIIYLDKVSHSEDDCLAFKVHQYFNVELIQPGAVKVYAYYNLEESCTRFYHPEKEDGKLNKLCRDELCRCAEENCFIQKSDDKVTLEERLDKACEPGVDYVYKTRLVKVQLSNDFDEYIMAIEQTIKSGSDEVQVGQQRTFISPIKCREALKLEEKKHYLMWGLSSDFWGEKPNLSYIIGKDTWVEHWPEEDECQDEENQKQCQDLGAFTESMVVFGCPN
# Chain of C3 convertase complex (P00751 260-764, chain 2 of 2): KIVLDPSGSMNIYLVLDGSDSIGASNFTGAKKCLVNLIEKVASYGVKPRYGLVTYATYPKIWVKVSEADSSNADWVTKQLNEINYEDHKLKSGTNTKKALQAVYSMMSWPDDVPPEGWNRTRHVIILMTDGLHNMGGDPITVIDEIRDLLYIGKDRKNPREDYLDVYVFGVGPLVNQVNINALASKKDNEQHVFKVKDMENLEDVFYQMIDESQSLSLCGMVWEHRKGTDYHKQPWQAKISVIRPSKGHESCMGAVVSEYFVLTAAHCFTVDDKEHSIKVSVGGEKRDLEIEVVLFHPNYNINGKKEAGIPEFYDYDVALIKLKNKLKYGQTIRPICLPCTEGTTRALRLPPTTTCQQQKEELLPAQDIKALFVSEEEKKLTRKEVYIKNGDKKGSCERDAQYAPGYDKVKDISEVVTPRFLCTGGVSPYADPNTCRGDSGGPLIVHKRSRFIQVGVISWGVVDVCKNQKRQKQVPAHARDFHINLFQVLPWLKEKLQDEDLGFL
C3 convertase activity % of the control,C3 convertase activity IC50,Binder
104 % of the control,0.0645 µg/mL,pCEP4-1NT7-14CT20 (other) EDCNELPPRRNTEILTGSWSDQTYPEGTQAIYKCRPGYRSLGNVIMVCRKGEWVALNPLRKCQKRPCGHPGDTPFGTFTLTGGNVFEYGVKAVYTCNEGYQLLGEINYRECDTDGWTNDIPICEVVKCLPVTAPENGKIVSSAMEPDREYHFGQAVRFVCNSGYKIEGDEEMHCSDDGFWSKEKPKCVEISCKSPDVINGSPISQKIIYKENERFQYKCNMGYEYSERGDAVCTESGWRPLPSCEEKSCDNPYIPNGDYSPLRIKHRTGDEITYQCRNGFYPATRGNTAKCTSTGWIPAPRCTLKPCDYPDIKHGGLYHENMRRPYFPVAVGKYYSYYCDEHFETPSGSYWDHIHCTQDGWSPAVPCLRKCYFPYLENGYNQNYGRKFVQGKSIDVACHPGYALPKAQTTVTCMENGWSPTPRCIRVKTGASGCPPPPQIPNSHNMTTTLNYRDGEKVSVLCQENYLIQEGEEITCKDGRWQSIPLCVEKIPCSQPPQIEHGTINSSRSSQESYAHGTKLSYTCEGGFRISEENETTCYMGKWSSPPQCEGLPCKSPPEISHGVVAHMSDSYQYGEEVTYKCFEGFGIDGPAIAKCLGEKWSHPPSCIKTDCLSLPSFENAIPMGEKKDVYKAGEQVTYTCATYYKMDGASNVTCINSRWTGRPTCRDTSCVNPPTVQNAYIVSRQMSKYPSGERVRYQCRSPYEMFGDEEVMCLNGNWTEPPQCKDSTGKCGPPPPIDNGDITSFPLSVYAPASSVEYQCQNLYQLEGNKRITCRNGQWSEPPKCLHPCVISREIMENYNIALRWTAKQKLYSRTGESVEFVCKRGYRLSSRSHTLRTTCWDGKLEYPTCAKRGGSGHHHHHH
239 % of the control,0.0281 µg/mL,pCEP4-1NT4-16CT20 (other) EDCNELPPRRNTEILTGSWSDQTYPEGTQAIYKCRPGYRSLGNVIMVCRKGEWVALNPLRKCQKRPCGHPGDTPFGTFTLTGGNVFEYGVKAVYTCNEGYQLLGEINYRECDTDGWTNDIPICEVVKCLPVTAPENGKIVSSAMEPDREYHFGQAVRFVCNSGYKIEGDEEMHCSDDGFWSKEKPKCVEISCKSPDVINGSPISQKIIYKENERFQYKCNMGYEYSERGDAVCTESGWRPLPSCEEKSGASGCKSPPEISHGVVAHMSDSYQYGEEVTYKCFEGFGIDGPAIAKCLGEKWSHPPSCIKTDCLSLPSFENAIPMGEKKDVYKAGEQVTYTCATYYKMDGASNVTCINSRWTGRPTCRDTSCVNPPTVQNAYIVSRQMSKYPSGERVRYQCRSPYEMFGDEEVMCLNGNWTEPPQCKDSTGKCGPPPPIDNGDITSFPLSVYAPASSVEYQCQNLYQLEGNKRITCRNGQWSEPPKCLHPCVISREIMENYNIALRWTAKQKLYSRTGESVEFVCKRGYRLSSRSHTLRTTCWDGKLEYPTCAKRGGSGHHHHHH
